Test results taken from the DeepSol protein solubility set.

Experiment: soluble on expression in E. coli; label from the status in PepcDB or PDB records

Sequence	soluble on expression in E. coli
MGEIESYCNKELGPLPTKAPTLSKNVLDLFSLKGKVASVTGSSGGIGWAVAEAYAQAGADVAIWYNSHPADEKAEHLQKTYGVHSKAYKCNISDPKSVEETISQQEKDFGTIDVFVANAGVTWTQGPEIDVDNYDSWNKIISVDLNGVYYCSHNIGKIFKKNGKGSLIITSSISGKIVNIPQLQAPYNTAKAACTHLAKSLAIEWAPFARVNTISPGYIDTDITDFASKDMKAKWWQLTPLGREGLTQELVGGYLYLASNASTFTTGSDVVIDGGYTCP	soluble
MAGDPMSTVAFHTLGCKVNHYETEAIWQLFKEANYERVDFEANADVFVINTCTVTNTGDKKSRQIIRRAIRQNPDAVICVTGCYAQTSSAEIMEIPGVDVVVGTQDRHKLLGYIDEFRKERQPINGVGNIMKNRKYEELDVPYFTDRTRASLKIQEGCNNFCTFCIIPWARGLMRSRDPEKVVEQATQLVNSGYKEIVLTGIHTGGYGQDLKDYNLAQLLRDLETINGLERIRISSIEASQLTDEVIDVLERSTKVVRHLHIPLQSGSDTVLKRMRRKYTMDRFSERLTKLHKALPDLAVTSDVIVGFPGETEAEFQETYDFIVKHKFSELHVFPYSPRIGTPAARMDDQIDEEIKNERVHKLITLSNQLGKLYASKFDQDVLEVIPEEQGDTEGTLVGYADNYMKVQFEGDESLIGQIVKVKITQANYPLNEGQAIKVVDFATNKSDREVLVLEHHHHHH	soluble
GMSSTSSKVVLHPTMLNCMRGLHKKAVLPEPVLDRGIELARAFVGGRRARGQRVERQPDVAAACLMIAAEEAQQPLPLAEVRCLDSSLGDVELRRADIVRELHLEDSERRLRDTFADNLLVKYILKLGLQVSLYLPHCKRLLTALGRVEALAGLTVADRVTTALLLARTAQTLSWEQGTHISKGKECDLGMEAIYANFSSKAHLEVTKVNKIMHLAVDVLPLIQAAFQDCGEPTAGKRKVDKNSEPEASGGTKRVKREET	soluble
MKLKRYEVLADEITASIQAGTRRAGDRLPSVRQTSASRGLSATTVFKAYYLLEARGLIRARDRSGYYVVGKPKALPPELEAGAPAESRRVDVDVSDRVLHVLQLTMRRDVVPFGSAFPHPSLFPHARLARAMASSVAALDPWSSVDDLSAGNTRLRRAIALRYLADGVQVRTEDIVITNGALEALNLCLGAVTRPGDSVLIESPTFYSALQSLERLGLRAIEVPAHPREGIELDALARAIDTHRPAACWLMTNFQNPLGSLMPEDKKRALVELLAARDVPLIEDDVYSELYFGAQRPLPAKAYDESGIVMSCSSFSKSLAPGWRIGWVLGGRYADRILRGKLALSLSTSAPSQAALATYLEHGGYDRHLRQLRQTLEQQRNQVMEAIARHFPPGTRTTHPDGGYFLWVALPPQVDALAVHRAALSLGVSTAPGPIFSVQDRFRHCLRLNYGHPFDARAQDGLATLGKLIARQC	not soluble
MIAELHIADDETAVKVLHLQRRAYTIEAQIIGSKALPPLHDTIASLQRCGERFFGYFQGERLVGAIACKRNGKTLRLCRLMVDPDCFRQGIASALLDFVIKQEPSISEIVVTTGSGNAPAIRFYERHGFRAIERIETPERIELTKLVKRSG	not soluble
MAGNSNLMIKTLRKISEILKKPPKASSESDVTVRDKACQALGSIKRLIGDTITAFIGPISTETAKIEKINQYQQEAAEEFKKFQETQPKAGGDGGAENSAENLDENQENSPEKAEKPQVLDAWELLEPEDCSKKIDKSVETQLIDKNWKERLAGAENVKKSMENAGRIEISERLTEISKLLMKIVEKDVNVNVGAISAQILAEIAKKSRFSFAPLALRAFPVVFDKLKDKKAILRDALVEFCDEAANTTPLSAYSEAVITALSNKNPQARQQTALFLSRFFAKNDPKTVETEAVKQLAEHILKTSNDADKEVREAALRIVAAVQKCLGEGVAKRLLAEVYDDKLKAEKLPPLIEELEKEFGSSASPEMLRLAKHYKIGASSTSAPPKTTAAGAPKRPSSAVAPRRAPPASAAPTRRAPSPKAPVVAPTRRAPSPKAPVASVAPVKPKPFVARPAPSFGKPRAAVAPARAPQITQRAPAATRPSTSAIRVTPIAPNVVRNGAPTTAQQAPRKPIGIARPQTSSGIAAPGAPRSRIAMPTTSSSSLARRPGSASSSVPRVPTGAASMTSSSRIRPPSRPGSRPGSRNE	not soluble
MGSDKIHHHHHHMGGKWMRWMAPAPPASNVPKCSCHRLLGKEPPNDSKDCRPGSLTGRALFSDVPRGMAKDVFQVHCVSATGRRVINKKIKRAKLLAFLETLPRCVVGMEACGSAHHWGGELRKLGHDVRLMPAAYVKLYVKRGKTDAADAEAICEAVRRQSMRFVEIESEDQQAVLAIHSARDLVVRQRTQVVNMIRSILREFGHILPTGIEAVSKFAREHGTEDQLDMPEIADGILGVMCHQLNGLNARVDGLTKLIEQHAWLDADARRLMRMPGIGPITASAIVATIGDAKQFETGRDLATWLGLTPLNKSSGGKERLGRIIKKGDRYIRKLLIIGMTSRSLMAKNKPEKADTWTAKLPDEQPFRLATVAMANKSARIIWALLTKREEYRQPIV	not soluble
MSLKKVKCITGMISLQGKRPTNEDTEIVKDKIKKDKIKFGLYAVFDGHGGSGTSQAAISVVEEELMKSELMKKKMYEEMMNEIFSKSDKILCNTVYDNSGCTAAVVLVIGRFLICANVGDSEVLVISEGKQYEVLSVQHKAKLPDEKKRITSLGVPVYGGRVYGSLAVSRSLGDKQYKGGRGAVISTPHVKVYEMTKKDKAFVISCDGIYETLNYDDVVDWVITGMKLNKAPTIIAENIAMDALEKGSKDNVSVIVSLLKWKEGHHHHHH	not soluble
MVGFLKHLVPKRFRKKELVIPVVRMQGAIMAGGNQFRPALNLASYAPLLEKAFAVKDAPAVAISLNSPGGSPVQARMIYNRIRQLAEEKDKKVLIFVEDVAASGGYMIALAGDEIIADPTSIVGSIGVVSGGFGFPEMLRKIGVERRVYTAGENKVILDPFQPEKEGDIDYLKSLQVEIHNVFIDMVKMRRGSKLKGDDALFSGLFWTGMRGLDLGLIDGLGDMREVLRRRYGTKVKLQLISGGRSLFGKKVPGVNMALGLNAERLAAGAVSGLAEVAEEKALWSRFGLLEHHHHHH	soluble
MSLDMNKPEGFDCPGCAWPDPKHSASFDICENGAKAIAWEVTDKQVNASFFAENTVQSLLTWGDHELEAAGRLTQPLKYDAVSDCYKPLSWQQAFDEIGARLQSYSDPNQVEFYTSGRTSNEAAFLYQLFAREYGSNNFPDCSNMCHEPTSVGLAASIGVGKGTVLLEDFEKCDLVICIGHNPGTNHPRMLTSLRALVKRGAKMIAINPLQERGLERFTAPQNPFEMLTNSETQLASAYYNVRIGGDMALLKGMMRLLIERDDAASAAGRPSLLDDEFIQTHTVGFDELRRDVLNSEWKDIERISGLSQTQIAELADAYAAAERTIICYGMGITQHEHGTQNVQQLVNLLLMKGNIGKPGAGICPLRGHSNVQGDRTVGITEKPSAEFLARLGERYGFTPPHAPGHAAIASMQAICTGQARALICMGGNFALAMPDREASAVPLTQLDLAVHVATKLNRSHLLTARHSYILPVLGRSEIDMQKNGAQAVTVEDSMSMIHASRGVLKPAGVMLKSECAVVAGIAQAALPQSVVAWEYLVEDYDRIRNDIEAVLPEFADYNQRIRHPGGFHLINAAAERRWMTPSGKANFITSKGLLEDPSSAFNSKLVMATVRSHDQYNTTIYGMDDRYRGVFGQRDVVFMSAKQAKICRVKNGERVNLIALTPDGKRSSRRMDRLKVVIYPMADRSLVTYFPESNHMLTLDNHDPLSGIPGYKSIPVELEPSNEGHHHHHH	soluble
MGIFSRFADIVNSNVTSLLDKAENPEKMIRLIIQEMEDTLVEVRTASAKALADKKELTRKISSIEAQVADWQDKASLALLKQREDLARSALIEKQKVQDILSSLKTEFILVEESIEKLSAELIELETKLTETRARQQALVIRQQTAQHRNDIKSHTHSGKTERAMAKFEQYERRIDELDAKADSYSIGKANSLEQEFAELQAQDEIDKEIERLKEQMKKDALEHHHHHH	not soluble
AVTKLVLVRHGESQWNKENRFTGWYDVDLSEKGVSEAKAAGKLLKEEGYSFDFAYTSVLKRAIHTLWNVLDELDQAWLPVEKSWKLNERHYGALQGLNKAETAEKYGDEQVKQWRRGFAVTPPELTKDDERYPGHDPRYAKLSEKELPLTESLALTIDRVIPYWNETILPRMKSGERVIIAAHGNSLRALVKYLDNMSEEEILELNIPTGVPLVYEFDENFKPLKRYYLGNADEIAAKAAAVANQGKAK	soluble
MSLILYDYFRSTACYRVRIALNLKKIAYEKIEVHLVNNGGEQHSLQYHQINPQELVPSLDINGQILSQSMAIIDYLEEIHPEMPLLPKDPFMKATLKSMALIVACDMHPLNNLRVLNRLKEQFNANEEQVLEWYHHWLKTGFDAFEEKLGALERDKPVCFGSEVGLADVCLIPQVYNAHRFHFDMASYPIINEINEYCLTLPAFHDAAPEAISSEGHHHHHH	soluble
MGSDKIHHHHHHMTNLNYCRPLSLTTNRCLMNKELETLILSAVDLPTIPLVATKVIEMIEQEDVTIEKIAQTVSADPAVAARILKLSNSAYYGCQRQINTLSGAIMLLGFRTLKSLVVAASLKQICKRFGLTEKMLWEHAVGAAIAARIISANGKFINEETAFLAGLFHDIGKTIMNDLDPSKFQQVMMRCYNEGLPFEEVERSIYSFSHAEVGALVIRKWNFPEALSTAVMNHHDFPNPTLTDQYDLFLTATTCLADKFCKKLGIGERHPDEELDLAKTQEAHLLGYTPETILRDVDQFAQTFEENKSFFIND	not soluble
ALNPNEHQLIKNVFGFIDVTVRQVMTPRTSINAIDIDLPLEYVLNKIVNEGYSRLPVYKDNIDNIIGILYTKDLLKMMNKGEQIKLQSAMRQPYFVPETKKINELLKNLQAKHLHMAIIIDEFGGVSGITTIEDIIEELVGEIQDEHDDEAPVVEQVSA	not soluble
MGSDKIHHHHHHMTITESRNAAVAEIEEVIGDWAEALRRKDAARVLAHGTEDCLVFSLAPPLKASDADAGGLEQWFSTWKGPLGFTLEELDVSVSGDVAFATALTHLSGEKHDGQKAALWYRLTLGLTRTDRGWKIAHQHESVPFYMDGSFKAAIDLDPRSEVDWQAPSRPPMPGVIAYLNVEDADAAAAFYVRAFGAKEEDRKHAQDGKRLIHCHLTINGGALMLNDPFPEFGHPWKPPEGFVLHLVVDDADFWWNRAVEAGAEVTMPLEIAFWGDHYGQLRDPFGVTWGIVAPVKEGG	not soluble
MNNSINHKFHHISRAEYQELLAVSRGDAVADYIIDNVSILDLINGGEISGPIVIKGRYIAGVGAEYTDAPALQRIDAHGATAVPGFIDAHLHIESSMMTPVTFETATLPRGLTTVICDPHEIVNVMGEAGFAWFARCAEQARQNQYLQVSSCVPALEGCDVNGASFTLEQMLAWRDHPQVTGLAEMMDYPGVISGQNALLDKLDAFRHLTLDGHCPGLGGKELNAYIAAGIENCHESYQLEEGRRKLQLGMSLMIREGSAARNLNALAPLINEFNSPQCMLCTDDRNPWEIAHEGHIDALIRRLIEQHNVPLHVAYRVASWSTARHFGLNHLGLLAPGKQADIVLLSDARKVTVQQVLVKGEPIDAQTLQAEESAKLAQSAPPYGNTIARQPVSASDFALQFTPGKRYRVIDVIHNELITHSHSSVYSENGFERNDVCFIAVLERYGQRLAPACGLLGGFGLNEGALAATVSHDSHNIVVIGRSAEEMALAVNQVIQDGGGLCVVRNGQVQSHLPLPIAGLMSTDTAQSLAEQIDALKAAARECGPLPDEPFIQMAFLSLPVIPALKLTSQGLFDGEKFAFTTLEVTE	not soluble
MEVKYGLHPTLGEHGERELLALQKVDYPKGDVKAQAKHTARTLLECYNCHSLGEYNTLLNLYNITVYEVRGSVDGKEYHGIMYGALDDNGQQVGTPFKSSKFGKVFGYEALQKKFAASAEKVKKDNLPERLEHHHHHH	not soluble
